Among the data in patent US20100260668A1 (published 2010) are EC50 values, retold here.

Values joined by “and” are separate entries in the source; they are usually repeats but may differ in a detail not shown here. Equal values may be shown once.

Experiment [1] concerns the target T1, biotin-labeled human DLL4 extracellular domain (human, UniProt Q9NR61 27-529, biotin-labeled).
T1 construct: extracellular domain
The experiment in a line: capture ELISA, antibody captured by anti-human Fc, biotin-labeled human DLL4 ECD.

Experiment [2] addresses T1, biotin-labeled human DLL4 extracellular …. The experiment in a line: DLL4 capture ELISA, antibody captured by anti-human Fc, biotin-labeled human DLL4 ECD.
Experiment [3] deals with T2, biotin-labeled human IGF2 (human, UniProt P01344 25-91, biotin-labeled). The experiment in a line: capture ELISA, DVD-Ig captured by anti-human Fc, biotin-labeled IGF2; C-terminal VD.
Experiment [4] deals with T3, biotin-labeled human IGF1 (human, UniProt P05019 49-118, biotin-labeled). The experiment in a line: capture ELISA, DVD-Ig captured by anti-human Fc, biotin-labeled IGF1; C-terminal VD.
Another experiment has as its target biotinylated VEGF (UniProt P15692-4 27-191, limits assumed, biotinylated). The experiment in a line: capture ELISA, DVD-Ig captured by anti-human Fc, biotinylated VEGF; N-terminal VD.
The target of experiment [5] is T4, his-tagged, recombinant RON protein (R&D Systems # 1947-MS) (UniProt Q04912 25-957, limits assumed).
T4 construct: extracellular domain; also called MSP Receptor ECD-His tag
The experiment in a line: IgG-Fc capture ELISA, his-tagged RON; N-terminal VD.

The next experiment deals with T5, PlGF (UniProt P49763-2 21-149, limits assumed).
T5 construct: Bought antigen coated on the ELISA plate; also called Placental GF; placental growth factor
T5 sequence (looked up): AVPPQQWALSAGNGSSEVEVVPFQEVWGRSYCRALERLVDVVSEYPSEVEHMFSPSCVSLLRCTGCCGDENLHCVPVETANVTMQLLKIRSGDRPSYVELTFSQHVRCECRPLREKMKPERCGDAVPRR
The experiment in a line: direct bind ELISA, antigen on plate; reference antibody.

For experiment [6], the target named is T2, biotin-labeled human IGF2. The experiment in a line: capture ELISA, antibody captured by anti-human Fc, biotin-labeled IGF2.
For experiment [7], the target named is T3, biotin-labeled human IGF1. The experiment in a line: capture ELISA, antibody captured by anti-human Fc, biotin-labeled IGF1.
The target of the next experiment is T6, IGF1 (IGF-I) (UniProt P05019 49-118).
T6 construct: Bought reagent
The experiment in a line: Direct Bind ELISA, antigen on plate; first value of IGF1/IGF2 cell.

Another experiment has as its target T7, IGF2 (IGF-2) (UniProt P01344 25-91).
T7 construct: Bought reagent
The experiment in a line: Direct Bind ELISA, antigen on plate; second value of IGF1/IGF2 cell.

Experiment [8] concerns the target T8, RON (MSP Receptor ECD-His tag) (UniProt Q04912 25-957, limits assumed).
T8 construct: extracellular domain; Bought reagent
The experiment in a line: Direct Bind ELISA, antigen on plate.

The target of experiment [9] is T4, his-tagged, recombinant RON protein …. The experiment in a line: IgG-Fc capture ELISA, his-tagged RON.
Experiment [10] concerns the target T1, biotin-labeled human DLL4 extracellular …. The experiment in a line: capture ELISA, DVD-Ig captured by anti-human Fc, biotin-labeled human DLL4 ECD; C-terminal VD.
In a further experiment the target is T9, HGF (HGF-His tag) (UniProt P14210 32-728).
T9 construct: Bought reagent
T9 sequence (P14210 32-728 limits assumed): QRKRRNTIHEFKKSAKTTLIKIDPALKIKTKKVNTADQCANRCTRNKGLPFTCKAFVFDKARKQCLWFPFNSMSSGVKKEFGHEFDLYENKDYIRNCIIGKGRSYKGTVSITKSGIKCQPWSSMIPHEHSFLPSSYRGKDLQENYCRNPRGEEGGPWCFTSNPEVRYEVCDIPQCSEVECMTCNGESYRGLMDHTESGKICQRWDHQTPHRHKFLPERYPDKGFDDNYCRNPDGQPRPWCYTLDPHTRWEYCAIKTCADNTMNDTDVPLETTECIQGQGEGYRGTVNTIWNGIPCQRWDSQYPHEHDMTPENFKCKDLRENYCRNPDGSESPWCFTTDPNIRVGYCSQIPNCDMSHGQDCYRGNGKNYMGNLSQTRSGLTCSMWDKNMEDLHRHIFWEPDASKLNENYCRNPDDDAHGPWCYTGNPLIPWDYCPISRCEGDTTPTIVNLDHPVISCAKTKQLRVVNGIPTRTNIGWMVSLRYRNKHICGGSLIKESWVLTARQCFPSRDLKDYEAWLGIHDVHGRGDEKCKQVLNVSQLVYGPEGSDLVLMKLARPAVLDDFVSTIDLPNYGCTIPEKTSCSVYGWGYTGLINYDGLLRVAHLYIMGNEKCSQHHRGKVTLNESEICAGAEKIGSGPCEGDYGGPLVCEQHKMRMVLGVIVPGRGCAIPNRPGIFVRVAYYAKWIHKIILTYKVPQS
The experiment in a line: Direct Bind ELISA, antigen on plate.

A further experiment deals with T10, IGF1R ECD (UniProt P08069 31-935, limits assumed).
T10 construct: extracellular domain; Bought reagent
The experiment in a line: Direct Bind ELISA, antigen on plate.

Experiment [11] deals with T11, IGF1R (antigen of the capture ELISA table) (UniProt P08069 31-932, limits assumed).
T11 construct: No IGF1R capture ELISA method is described; also called IGFR
The experiment in a line: antigen capture ELISA, IGF1R.

Another experiment concerns the target T12, VEGF (UniProt P15692 27-191, limits assumed).
T12 construct: Bought antigen coated on the ELISA plate; also called vascular endothelial growth factor
The experiment in a line: direct bind ELISA, antigen on plate; reference antibody.

In a further experiment the target is T13, VEGF 1-165 aa (UniProt P15692 27-191).
T13 construct: Bought antigen coated on the ELISA plate
T13 sequence (P15692 other isoform, or with tags, fused parts or gaps limits assumed): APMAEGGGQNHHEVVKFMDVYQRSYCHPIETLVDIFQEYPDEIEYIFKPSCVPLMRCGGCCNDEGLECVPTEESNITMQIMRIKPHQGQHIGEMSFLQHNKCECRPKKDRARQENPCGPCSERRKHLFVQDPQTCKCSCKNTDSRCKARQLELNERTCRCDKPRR
The experiment in a line: direct bind ELISA (ref Ab).

biotinylated VEGF, sequence (P15692 other isoform, or with tags, fused parts or gaps limits assumed): as above
T12 sequence (P15692 other isoform, or with tags, fused parts or gaps limits assumed): as above

B1: AB015 (antibody, human IgG1, kappa)
heavy: not shown
light: DIQMTQSPSSLSASVGDRVTITCRASQDVSTAVAWYQQKPGKAPKLLIYSASFLYSGVPSRFSGSGSGTDFTLTISSLQPEDFATTYYCQQSYTGTVTFGQGTKVEIKRTVAAPSVFIFPPSDEQLKSGTASVVCLLNNFYPREAKVQWKVDNALQSGNSQESVTEQDSKDSTYSLSSTLTLSKADYEKHKVYACEVTHQGLSSPVTKSFNRGEC
Regarding B1, the EC50 in experiment [1] is 0.03 nM; in [2], 0.15 nM and 0.18 nM and 0.14 nM.

B2: DVD041 (bispecific antibody, human IgG1, lambda)
heavy: not shown
light: DIQMTQSPSSLSASVGDRVTITCSASQDISNYLNWYQQKPGKAPKVLIYFTSSLHSGVPSRFSGSGSGTDFTLTISSLQPEDFATYYCQQYSTVPWTFGQGTKVEIKRTVAAPQSVLTQPPSVSAAPGQKVTISCSGSSSNIENNHVSWYQQLPGTAPKLLIYDNNKRPSGIPDRFSGSKSGTSATLGITGLQTGDEADYYCETWDTSLSAGRVFGGGTKLTVLGQPKAAPSVTLFPPSSEELQANKATLVCLISDFYPGAVTVAWKADSSPVKAGVETTTPSKQSNNKYAASSYLSLTPEQWKSHRSYSCQVTHEGSTVEKTVAPTECS
notes: DVD-Ig; also called VEGF / IGF1,2 DVD-Ig; DVD041H
With B2, the concentration giving a half-maximal response (EC50) in [3] was found to be 7340 nM; in experiment [4], 381 nM; in the experiment with biotinylated VEGF, 0.7 nM.

B3: DVD033 (bispecific antibody, human IgG1, kappa)
heavy: not shown
light: DVVMTQSPLSLPVTPGEPASISCRSSQSLLHSNGFNYVDWYLQKPGQSPHLLIYFGSYRASGVPDRFSGSGSGTDFTLKISRVEAEDVGVYYCMQALQTPPWTFGQGTKVEIRRTVAAPDIQMTQSPSSVSASVGDRVTITCRASQGISSWLAWYQQKPGKAPNLLIYEASSLQSGVPSRFGGSGSGTDFTLTISSLQPEDFATYYCQQANGFPWTFGQGTKVEIKRTVAAPSVFIFPPSDEQLKSGTASVVCLLNNFYPREAKVQWKVDNALQSGNSQESVTEQDSKDSTYSLSSTLTLSKADYEKHKVYACEVTHQGLSSPVTKSFNRGEC
notes: DVD-Ig; also called RON / HGF DVD-Ig; DVD033H
In the case of B3, the EC50 in experiment [5] was 2.5 nM.

B4: AB047 (antibody, human IgG1, kappa, V domains shown)
VH: QVQLQQSGAELVKPGASVKISCKASGYTFTDYYINWVKLAPGQGLEWIGWIYPGSGNTKYNEKFKGKATLTIDTSSSTAYMQLSSLTSEDTAVYFCVRDSPFFDYWGQGTLLTVSS
VL: DIVLTQSPDSLAVSLGERVTMNCKSSQSLLNSGMRKSFLAWYQQKPGQSPKLLIYWASTRESGVPDRFTGSGSGTDFTLTISSVQAEDVAVYYCKQSYHLFTFGSGTKLEIKR
notes: also called AB047VH; AB047VL
Turning to B4, in the experiment with PlGF, the EC50 was 0.13 nM and 0.14 nM.

B5: AB010 (antibody, human IgG1, lambda, V domains shown)
VH: QVQLVQSGAEVKKPGASVKVSCKASGYTFTSYDINWVRQATGQGLEWMGWMNPNSGNTGYAQKFQGRVTMTRNTSISTAYMELSSLRSEDTAVYYCARDPYYYYYGMDVWGQGTTVTVSS
VL: QSVLTQPPSVSAAPGQKVTISCSGSSSNIENNHVSWYQQLPGTAPKLLIYDNNKRPSGIPDRFSGSKSGTSATLGITGLQTGDEADYYCETWDTSLSAGRVFGGGTKLTVLG
notes: also called IGF1,2 parent antibody
As for B5, the EC50 was 10 nM and 18.1 nM in [6]; 4.8 nM in experiment [7].

B6: AB010 (anti-IGF1,2 parent antibody) (antibody, IgG1, V domains shown)
VH: B5 VH
VL: B5 VL
notes: HC vector V1 (wild-type hIgG1 constant), LC vector V3 (lambda constant); also called AB010VH; AB010VL
For the molecule B6, the EC50 was 4.77 nM in the experiment with IGF1 (IGF-I); 10 nM and 18.1 nM in the experiment with IGF2 (IGF-2).

B7: AB005 (anti-RON (seq. 1) parent antibody) (antibody, IgG1, V domains shown)
VH: EVQLVQSGGGLVKPGGSLRLSCAASGFTFSSYAMHWVRQAPGKGLEWVAVISYDGSNKYYADSVKGRFTISRDNSKNTLYLQMNSLRAEDTAVYYCARFSGWPNNYYYYGMDVWGQGTTVTVSS
VL: DVVMTQSPLSLPVTPGEPASISCRSSQSLLHSNGFNYVDWYLQKPGQSPHLLIYFGSYRASGVPDRFSGSGSGTDFTLKISRVEAEDVGVYYCMQALQTPPWTFGQGTKVEIRR
notes: HC vector V1 (wild-type hIgG1 constant), LC vector V2 (kappa constant); also called AB005VH; AB005VL
As for B7, the EC50 in [8] is 0.26 nM and 0.21 nM.

B8: AB005 (antibody, human IgG1, kappa, V domains shown)
VH: B7 VH
VL: B7 VL
Turning to B8, the EC50 in experiment [9] is 1.6 nM and 0.7 nM and 1.3 nM.

B9: DVD043 (bispecific antibody, human IgG1, kappa)
heavy: not shown
light: DIQMTQSPSSLSASVGDRVTITCSASQDISNYLNWYQQKPGKAPKVLIYFTSSLHSGVPSRFSGSGSGTDFTLTISSLQPEDFATYYCQQYSTVPWTFGQGTKVEIKRTVAAPDIQMTQSPSSLSASVGDRVTITCRASQDVSTAVAWYQQKPGKAPKLLIYSASFLYSGVPSRFSGSGSGTDFTLTISSLQPEDFATTYYCQQSYTGTVTFGQGTKVEIKRTVAAPSVFIFPPSDEQLKSGTASVVCLLNNFYPREAKVQWKVDNALQSGNSQESVTEQDSKDSTYSLSSTLTLSKADYEKHKVYACEVTHQGLSSPVTKSFNRGEC
notes: DVD-Ig; also called VEGF / DLL4 DVD-Ig; DVD043H
For B9, the EC50 in experiment [10] turned out to be 0.5 nM; with biotinylated VEGF, 0.2 nM.

B10: AB012 (anti-HGF (seq. 1) parent antibody) (antibody, IgG1, V domains shown)
VH: QVQLVESGGGLVKPGGSLRLSCAASGFTFSDYYMSWIRQAPGKGLEWVSYISSSGSTIYYADSVKGRFTISRDNAKNSLYLQMNSLRAEDTAVYYCARDEYNSGWYVLFDYWGQGTLVTVSS
VL: DIQMTQSPSSVSASVGDRVTITCRASQGISSWLAWYQQKPGKAPNLLIYEASSLQSGVPSRFGGSGSGTDFTLTISSLQPEDFATYYCQQANGFPWTFGQGTKVEIKR
notes: HC vector V1 (wild-type hIgG1 constant), LC vector V2 (kappa constant); also called AB012VH; AB012VL
With B10, in the experiment with HGF (HGF-His tag), the EC50 was 0.22 nM and 0.19 nM.

B11: AB011 (anti-IGF1R (seq. 1) parent antibody) (antibody, IgG1, V domains shown)
VH: EVQLLESGGGLVQPGGSLRLSCTASGFTFSSYAMNWVRQAPGKGLEWVSAISGSGGTTFYADSVKGRFTISRDNSRTTLYLQMNSLRAEDTAVYYCAKDLGWSDSYYYYYGMDVWGQGTTVTVSS
VL: DIQMTQFPSSLSASVGDRVTITCRASQGIRNDLGWYQQKPGKAPKRLIYAASRLHRGVPSRFSGSGSGTEFTLTISSLQPEDFATYYCLQHNSYPCSFGQGTKLEIKR
notes: HC vector V1 (wild-type hIgG1 constant), LC vector V2 (kappa constant); also called AB011VH; AB011VL
The molecule B11 had an EC50 with IGF1R ECD of 0.28 nM.

B12: AB011 (antibody, human IgG1, kappa, V domains shown)
VH: B11 VH
VL: B11 VL
B12 displayed an EC50 in experiment [11] of 0.3 nM.

B13: AB071 (antibody, human IgG1, kappa, L234A L235A, V domains shown)
VH: EVQLVESGGGLVQPGGSLRLSCAASGFTINASWIHWVRQAPGKGLEWVGAIYPYSGYTNYADSVKGRFTISADTSKNTAYLQMNSLRAEDTAVYYCARWGHSTSPWAMDYWGQGTLVTVSS
VL: DIQMTQSPSSLSASVGDRVTITCRASQVIRRSLAWYQQKPGKAPKLLIYAASNLASGVPSRFSGSGSGTDFTLTISSLQPEDFATYYCQQSNTSPLTFGQGTKVEIKR
notes: also called AB071VH; AB071VL
Molecule B13 came in with an EC50 in the experiment with VEGF of 20.9 nM.

B14: AB071 (antibody, human IgG1, kappa, L234A L235A, V domains shown)
VH: B13 VH
VL: B13 VL
notes: Vectors V7/V2
For the molecule B14, the 50% effective concentration (EC50) in the experiment with VEGF 1-165 aa was 40.4 nM and 80.4 nM and 79.5 nM.
